Test results: patent US20240360208A1 (Hoffmann-La Roche, published 2024)

Columns and labels:
[1] = molecular target: T1, human CCL2 (MCP1) - wild type (wt) (human, UniProt P13500 24-99); assay: SPR T200, 25 C, anti-human Fc capture, 1:1 model, pH 8.3; pH 8.3
T1 construct: Made in-house or bought (R&D Systems 279-MC), depending on the assay; can form dimers; also called wt human CCL2; WT human CCL2

[2] = molecular target: T1, human CCL2 (MCP1) - wild type (wt); assay: SPR T200, 25 C, anti-human Fc capture, 1:1 model, pH 7.9
Procedure: (§1) An antibody capture system was established. 13000 MAb<h-Fc-pan>M-R10Z8E9-IgG (Roche) were immobilized at 25° C. at 18 μg/ml in 10 mM sodium acetate buffer pH 5.0, by EDC/NHS coupling as described by the manufacturer. The capture system was regenerated by an injection at 20 μl/min with HBS buffer (100 mM HEPES pH 7.4, 1.5 M NaCl, 0.05% (w/v) Tween 20), followed by a 1 min 15 see injection with 10 mM NaOH and two 10 mM glycine buffer pH 2.5 injections for 1 min. Antibodies were captured were injected for 30 see at 10 μl/min at 80 nM concentration diluted in the respective system buffer. […] The analyte contact time was 3 min and the dissociation time was 10 min. Analyte kinetics were performed at 50 μl/min.
(§2) The Biaevaluation software V.3.0 was used according to the instructions of the manufacturer GEHC. A 1:1 binding model with RMAX local was applied to determine kinetic rates.

[3] = molecular target: T1, human CCL2 (MCP1) - wild type (wt); assay: cell-based or functional assay
[4] = molecular target: T1, human CCL2 (MCP1) - wild type (wt); assay: SPR T200, 25 C, anti-human Fc capture, 1:1 model, pH 6.3
[5] = molecular target: T2, human CCL8 (MCP2) - wild type (wt) (human, UniProt P80075 24-99); assay: SPR (Biacore T200), 25 °C, ACES pH 7.4; antibody captured on anti-human IgG (Fc), chemokine injected at 5 nM and 20 nM
T2 construct: also called huCCL8
T2 sequence: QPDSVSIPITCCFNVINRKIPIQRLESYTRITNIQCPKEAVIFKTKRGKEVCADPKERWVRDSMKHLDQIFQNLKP
Procedure: (§3) Biacore assay method: The binding of anti-CCL2 antibodies to the CCL homologs e.g. CCL2 (MCP-1), CCL8 (MCP-2), CCL7 (MCP-3), and CCL13 (MCP-4) were assessed at 25° C. using Biacore T200 instrument (GE Healthcare). Mouse anti-human IgG (Fc) (GE Healthcare) was immobilized on each flow cells of a CM4 sensor chip using amine coupling kit (GE Healthcare) according to the recommended settings by the manufacturer. Antibodies and analytes were diluted into ACES pH 7.4 buffer (20 mM ACES, 150 mM NaCl, 1 mg/ml BSA, 0.05% Tween 20, 0.005% NaN3). Antibodies were captured onto the anti-Fc sensor surfaces, then recombinant human CCL homologs proteins was injected over the flow cell at 5 nM and 20 nM. […] Sensor surface was regenerated each cycle with 3M MgCl2. Binding sensorgram was processed using Biacore T200 Evaluation software, version 2.0 (GE Healthcare).

[6] = molecular target: T3, human CCL7 (MCP3) - wild type (wt) (human, UniProt P80098 24-99); assay: as above
T3 construct: Bought from R&D Systems for the homolog assay
Procedure: as §3

[7] = molecular target: T1, human CCL2 (MCP1) - wild type (wt); assay: cell-based or functional assay; remark: listed apart in the source
[8] = molecular target: T1, human CCL2 (MCP1) - wild type (wt); assay: SPR T200, 25 C, anti-human Fc capture, 1:1 model, pH 7.1
Procedure: as §1, §2

[9] = molecular target: T1, human CCL2 (MCP1) - wild type (wt); assay: SPR T200, 25 C, anti-human Fc capture, 1:1 model, pH 6.7
[10] = molecular target: T1, human CCL2 (MCP1) - wild type (wt); assay: SPR T200, 25 C, anti-human Fc capture, 1:1 model, pH 5.5
Procedure: as §1, §2

[11] = molecular target: T1, human CCL2 (MCP1) - wild type (wt); assay: SPR T200, 25 C, anti-human Fc capture, 1:1 model, pH 8.3
Procedure: as §1, §2

[12] = molecular target: T1, human CCL2 (MCP1) - wild type (wt); assay: SPR T200, 25 C, anti-human Fc capture, 1:1 model, pH 7.4
Procedure: as §1, §2

[13] = molecular target: T1, human CCL2 (MCP1) - wild type (wt); assay: SPR T200, 25 C, anti-human Fc capture, 1:1 model, pH 5.9
Procedure: as §1, §2

[14] = molecular target: T4, human CCL2 (MCP1) - P8A variant (human, UniProt P13500 24-99); assay: SPR T200, 37 C, antibody captured, 1:1 model
T4 construct: In-house point mutant that cannot dimerise; also called monomeric human CCL2; monomeric CCL2
How it was run: (§4)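 Antibodies from clone supernatants were captured for 1 min, then wild-type or monomeric P8A CCL2 was injected at up to 90 nM at 30 μl/min. Association lasted 3 min and dissociation 10 min. Kinetic rates were fitted with local Rmax.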

[15] = molecular target: T1, human CCL2 (MCP1) - wild type (wt); assay: SPR T200, 37 C, antibody captured, 1:1 model
How it was run: as §4

Kd [1]: ≤ 0.003 nM
Kd [2]: 0.02 nM
t 1/2-diss. [2]: 2.75 h
THP1 chemotaxis [fold change compared to IgG control] [3]: 7.2 fold
Kd [4]: 0.003 nM
t 1/2-diss. [4]: 19.2 h
binding result [5]: binds
binding result [6]: no binding (tested: 20 nM)
IC50, inhibition of THP-1 migration (chemotaxis assay) [7]: 0.7 µg/mL
Kd [8]: 0.01 nM
t 1/2-diss. [8]: 3.58 h
Kd [9]: 0.01 nM
t 1/2-diss. [9]: 4.87 h
Kd [10]: 0.01 nM
t 1/2-diss. [10]: 1.97 h
t 1/2-diss. [11]: 19.2 h
Kd [12]: 0.02 nM
t 1/2-diss. [12]: 2.72 h
Kd [13]: 0.01 nM
t 1/2-diss. [13]: 4.78 h
Kd [14]: 0.035 nM
T1/2 [14]: 1.93 h
Kd [15]: 0.028 nM
T1/2 [15]: 1.97 h
B1: Humanized 11K2 (=11K2) (antibody, IgG1, V domains shown)
VH: QVQLVQSGAEVKKPGSSVKVSCKASGLTISDTYMHWVRQAPGQGLEWMGRIDPANGNTKFDPKFQGRVTITADTSTSTAYMELSSLRSEDTAVYYCARGVFGFFDYWGQGTTVTVSS
VL: DIQMTQSPSSLSASVGDRVTITCKATEDIYNRLAWYQQKPGKAPKLLISGATSLETGVPSRFSGSGSGTDYTLTISSLQPEDFATYYCQQFWSAPYTFGGGTKVEIK
notes: IgG1 with kappa light chain; also called CCL2-0002; humanized 11k2 IgG1
